Measurements reported in PMC7242440 (2020).

Tests used:
[1] = target: Mpa (Mycobacterium tuberculosis) (UniProt P9WQN5); conditions: cited from earlier work
Mpa = target: T1, Mpa (Mycobacterium tuberculosis, UniProt P9WQN5); experiment: NMR
T1 chain: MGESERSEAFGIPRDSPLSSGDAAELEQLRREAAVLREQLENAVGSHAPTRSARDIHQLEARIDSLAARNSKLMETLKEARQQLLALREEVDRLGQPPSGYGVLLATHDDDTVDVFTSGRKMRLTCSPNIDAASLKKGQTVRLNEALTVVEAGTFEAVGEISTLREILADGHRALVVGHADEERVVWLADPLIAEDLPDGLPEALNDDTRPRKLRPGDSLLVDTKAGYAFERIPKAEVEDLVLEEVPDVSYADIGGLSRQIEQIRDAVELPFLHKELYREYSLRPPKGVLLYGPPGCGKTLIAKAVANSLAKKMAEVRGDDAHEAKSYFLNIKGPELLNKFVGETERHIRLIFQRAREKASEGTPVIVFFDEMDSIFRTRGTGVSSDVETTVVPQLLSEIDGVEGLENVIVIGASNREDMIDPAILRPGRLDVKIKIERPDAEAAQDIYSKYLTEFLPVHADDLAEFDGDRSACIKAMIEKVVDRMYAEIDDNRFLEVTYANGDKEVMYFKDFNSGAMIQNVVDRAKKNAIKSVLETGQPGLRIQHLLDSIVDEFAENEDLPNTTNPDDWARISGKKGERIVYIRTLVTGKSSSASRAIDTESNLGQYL

Molecule | Kd [1] | Kd (Mpa)
Pup (from UniProt P9WHN5) | 3.5 µM | 
Pup (protein) MAQEQTKRGGGGGDDDDIAGSTAAGQERREKLTEETDDLLDEIDDVLEENAEDFVRAYVQKGGQ |  | ~28 µM
